Data: publication PMC6941359, “An improved bind-n-seq strategy to determine protein-DNA interactions validated using the bacterial transcriptional regulator YipR”

How the values were obtained:
YipR (His6-MBP fusion) = YipR (His6-MBP fusion) (Xanthomonas campestris pv. campestris …, UniProt A0A0H2XAU1 1-344); assay: EMSA; EMSA buffer not given in the material; Bind-n-seq: 20 mM Tris-HCl pH 8, 1 mM TCEP, 2% glycerol, 1 mM EDTA (binding buffer A) plus MgCl2, BSA and 0-500 mM KCl, room temperature 2 h; details: protein: recombinant; tags: His6-MBP; label: DIG; blunt
YipR (His6-MBP fusion), sequence (A0A0H2XAU1 whole entry, the tested form may be a part): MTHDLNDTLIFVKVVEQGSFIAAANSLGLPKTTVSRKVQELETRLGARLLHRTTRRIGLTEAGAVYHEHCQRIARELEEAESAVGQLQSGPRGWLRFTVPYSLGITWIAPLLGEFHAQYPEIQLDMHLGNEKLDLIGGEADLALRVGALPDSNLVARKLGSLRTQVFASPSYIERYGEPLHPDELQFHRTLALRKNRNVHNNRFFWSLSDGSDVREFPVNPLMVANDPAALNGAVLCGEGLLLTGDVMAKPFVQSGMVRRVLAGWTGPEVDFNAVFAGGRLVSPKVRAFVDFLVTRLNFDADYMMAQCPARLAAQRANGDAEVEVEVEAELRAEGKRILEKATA

His6-MBP tag alone = His6-MBP tag alone (UniProt P0AEX9 27-392); assay: EMSA; tag-only control; EMSA buffer not given in the material; Bind-n-seq: 20 mM Tris-HCl pH 8, 1 mM TCEP, 2% glycerol, 1 mM EDTA (binding buffer A) plus MgCl2, BSA and 0-500 mM KCl, room temperature 2 h; details: protein: recombinant; tags: His6-MBP; label: DIG; blunt

B1: XC_2633P (dsDNA)
DNA 1: CCGGCTTTATCCAGATCGCCGACCTGCACCCAGGACCCAGCGGCTTGCTGACGCCCTTCAAGGACACACGGATGTGGATAGCGGGGTTCAAGCCCGACGGGAACCGCGACAAGTAACCCGGCCTCCTACTTCCCAATCCCTCTC
DNA 2: GAGAGGGATTGGGAAGTAGGAGGCCGGGTTACTTGTCGCGGTTCCCGTCGGGCTTGAACCCCGCTATCCACATCCGTGTGTCCTTGAAGGGCGTCAGCAAGCCGCTGGGTCCTGGGTGCAGGTCGGCGATCTGGATAAAGCCGG
B1: binds (YipR (His6-MBP fusion)); no binding (His6-MBP tag alone).
